“Also recorded” adds a separate entry of the source.
B1: EGF-Gen: rhEGF linked via the photoreactive cross-linker Sulfo-SANPAH to genistein at its C7 hydroxyl group (conjugate, UniProt P01133 23-1207, looked up)
Pro-epidermal growth factor: PQHWSCPEGTLAGNGNSTCVGPAPFLIFSHGNSIFRIDTEGTNYEQLVVDAGVSVIMDFHYNEKRIYWVDLERQLLQRVFLNGSRQERVCNIEKNVSGMAINWINEEVIWSNQQEGIITVTDMKGNNSHILLSALKYPANVAVDPVERFIFWSSEVAGSLYRADLDGVGVKALLETSEKITAVSLDVLDKRLFWIQYNREGSNSLICSCDYDGGSVHISKHPTQHNLFAMSLFGDRIFYSTWKMKTIWIANKHTGKDMVRINLHSSFVPLGELKVVHPLAQPKAEDDTWEPEQKLCKLRKGNCSSTVCGQDLQSHLCMCAEGYALSRDRKYCEDVNECAFWNHGCTLGCKNTPGSYYCTCPVGFVLLPDGKRCHQLVSCPRNVSECSHDCVLTSEGPLCFCPEGSVLERDGKTCSGCSSPDNGGCSQLCVPLSPVSWECDCFPGYDLQLDEKSCAASGPQPFLLFANSQDIRHMHFDGTDYGTLLSQQMGMVYALDHDPVENKIYFAHTALKWIERANMDGSQRERLIEEGVDVPEGLAVDWIGRRFYWTDRGKSLIGRSDLNGKRSKIITKENISQPRGIAVHPMAKRLFWTDTGINPRIESSSLQGLGRLVIASSDLIWPSGITIDFLTDKLYWCDAKQSVIEMANLDGSKRRRLTQNDVGHPFAVAVFEDYVWFSDWAMPSVMRVNKRTGKDRVRLQGSMLKPSSLVVVHPLAKPGADPCLYQNGGCEHICKKRLGTAWCSCREGFMKASDGKTCLALDGHQLLAGGEVDLKNQVTPLDILSKTRVSEDNITESQHMLVAEIMVSDQDDCAPVGCSMYARCISEGEDATCQCLKGFAGDGKLCSDIDECEMGVPVCPPASSKCINTEGGYVCRCSEGYQGDGIHCLDIDECQLGEHSCGENASCTNTEGGYTCMCAGRLSEPGLICPDSTPPPHLREDDHHYSVRNSDSECPLSHDGYCLHDGVCMYIEALDKYACNCVVGYIGERCQYRDLKWWELRHAGHGQQQKVIVVAVCVVVLVMLLLLSLWGAHYYRTQKLLSKNPKNPYEESSRDVRSRRPADTEDGMSSCPQPWFVVIKEHQDLKNGGQPVAGEDGQAADGSMQPTSWRQEPQLCGMGTEQGCWIPVSSDKGSCPQVMERSFHMPSYGTQTLEGGVEKPHSLLSANPLWQQRALDPPHQMELTQ
modifications: Pro-epidermal growth factor genistein via Sulfo-SANPAH cross-linker
B2: EGF: unconjugated EGF (modified EGF not conjugated to genistein) (protein, UniProt P01133 23-1207, looked up)
Pro-epidermal growth factor: B1 Pro-epidermal growth factor
modifications: Pro-epidermal growth factor

Legend:
[1] = tested on: vascular injury-induced neointimal hyperplasia; assay: Murine restenosis model: photoactivated rose bengal vascular injury of the femoral artery, histomorphometric analysis; type: in vivo, C57B1/6 mice; conditions: for Stenosis Index (Mean ± SE), neointima/media ratio in areas of maximum neointimal hyperplasia, 2 weeks: 2 weeks after injury, EGF-Gen or unconjugated EGF 0.1 mg/kg/dose twice daily for 14 days; for Effect on neointimal hyperplasia / neointima formation (in words): injured femoral arteries, EGF-Gen at less than 5% of the highest nontoxic dose
Description: Three to four week old C57 B1/6 male mice (Taconic, Germantown, N.Y.) were housed in micro-isolator cages on a 12-hour day/night cycle and kept for 2 weeks on the Paigen's cocoa butter diet of 15.8% fat, 1.25% cholesterol and 0.5% sodium cholate (Harlan Teklad, Madison, Wis., U.S.A.) to induce high plasma cholesterol levels similar to those of patients with lipid disorders.
Mice were injected with 300 microliters of a 3 mg/ml photoactivated rose bengal solution (Aldrich, Milwaukee, Wis.) in sterile PBS via the tail vein and anesthetized with ketamine/xylazine solution (100 mg ketamine/kg and 5 […]). Photoactivation of rose bengal using percutaneous irradiation with a green light source (300 Watt Xenon arced lamp equipped with a 550 nanometer broad band interference filter, Oriel Scientific, Stratford, Conn.) was performed on the shaved left leg by placing a 3.2 mm glass fiber optic light guide directly into the left femoral vein/artery for 10 minutes. The unirradiated right femoral artery served as an internal control.
Following irradiation the mice were treated for either 14 days or 28 days with intraperitoneal injections of (1) EGF-Gen conjugate or unconjugated EGF (modified EGF not conjugated to genistein) at a dose level of 0. I mg/kg/dose once in the morning and once in the evening; or (2) 2 mg/kg/dose of unconjugated genistein or derivatives of 6,7-dimethoxyquinizalone dissolved in 10% DMSO once per day; or (3) with PBS.
At the times indicated, the animals were euthanized with ketamine/xylazine and perfused with PBS followed by 4% phosphate buffered formalin. PBS and formalin were pumped through the left ventricle of the heart and allowed to exit through a 3 mm incision through the interior wall of the right ventricle. The brain, thymus, heart, lung, liver, pancreas, kidney, spleen, intestine, stomach, muscle, skin adrenal, and testes were collected for pathological evaluation. For histopathological studies, tissues were fixed in 10% neutral buffered formalin, dehydrated and embedded in paraffin by routine methods. Tissue blocks containing the femoral artery/vein were excised and post-fixed in 4% phosphate buffered formalin overnight and processed for hemotoxylin and eosin (H&E) or Masson's trichrome staining. Glass slides were affixed with 6 micron tissue sections and were stained with hematoxylin and eosin or Masson's trichrome. Serial sections were examined for areas of maximum neointimal hyperplasia for which the ratios of neointima/media (stenosis index) were determined. This was necessary to compensate for angular differences among specimens. A Pixera camera (Pixera Corp., Calif., USA) was used for image capture and the NIH image 1.61(Rasband et al., 1995, Microbeam Analysis Soc. J. 4:137-149) program was used for histo-morphometric analysis.
All numeric data are shown as mean±SEM. Statistical analysis between groups was performed by Mann-Whitney t-test or Fisher's exact test using Instat, GraphPad Software, San Diego, Calif. Cumulative percentage plots were analyzed using Wilcoxon statistics by Statview, Abacus Concepts, Inc., Berkeley, Calif.
Vascular injury was induced in C57B1/6 mice as described for Example 2. Following irradiation, the mice were treated for either 14 days or 28 days with intraperitoneal injections of (1) EGF-Gen or unconjugated EGF (modified EGF not conjugated to genistein) at a dose level of 0.1 mg/kg/dose, once in the morning and once in the evening. For 14 day treatment, this dose represents a cumulative total dose level of 2.8 mg/kg and 2% of the highest nontoxic cumulative dosed tested in toxicity studies (Uckun et al., 1998, Clinical Cancer Res 5:1125-1134). For 28 day treatment, this dose represents a cumulative total dose level of 5.6 mg/kg and 4% of the highest nontoxic cumulative dosed tested in toxicity studies. Control animals were injected with 2 mg/kg/dose of unconjugated genistein or derivatives of 6, 7-dimethoxyquinizalone dissolved in 10% DMSO once per day or with PBS. […]

[2] = tested on: vascular smooth muscle cells (VSMC); assay: Migration of VSMC through Matrigel matrix-coated Boyden chambers; type: cell-based; conditions: for Effect on migration of VSMC (in words): EGF-gen 0.25, 0.5, 1 μg/ml or EGF 1 μg/ml, overnight
Description: Migration of VSMC through Matrigel™ matrix was performed as described above for Example 4.
FIGS. 7A-7E show the morphological features of migrated VSMC incubated with 0.25 μg/ml (FIG. 7B), 0.5 μg/ml (FIG. 7C), or 1 μg/ml (FIG. 7D) of EGF-gen or with 1 μg/ml EFG (FIG. 7E), overnight. The control (FIG. 7A) was untreated. The cells were then trypsinized and processed for the migration assay using Matrigel™ matrix-coated boyden chambers. Cells migrated through the matrigel and were counted and expressed as % of controls. FIG. 7F is a bar graph showing the dose dependent inhibition of migration by EGF-Gen.

breast cancer cells = conditions: U.S. patent application Ser. No. 08/602,186; cited from earlier work

Molecule | Stenosis Index (Mean ± SE), neointima/media ratio in areas of maximum neointimal hyperplasia, 2 weeks ([1]; i.p.) | Mice with neointimal hyperplasia detected, 2 weeks after vascular injury ([1]; i.p. 0.1 mg/kg/dose twice daily, 0.1 mg/kg) | Stenosis Index (Mean ± SE), neointima/media ratio in areas of maximum neointimal hyperplasia, 4 weeks ([1]; 4 weeks after injury, i.p., EGF-Gen 0.1 mg/kg/dose twice daily for 28 days, Gen or quinazolines 2 mg/kg/dose once per day in 10% DMSO) | Mice with neointima detected, 4 weeks post injury ([1]; 4 weeks, i.p. 0.1 mg/kg/dose twice daily) | Effect on neointimal hyperplasia / neointima formation (in words) [1] | Effect on neointimal hyperplasia / neointima formation (in words) ([1]; listed as EGF-Genistein) | Effect on migration of VSMC (in words) [2] | Concentration giving complete cessation of in vitro migration of VSMC ([2]; overnight incubation, then Matrigel migration assay) | Potency of the conjugate relative to unconjugated Genistein (breast cancer cells) | Stenosis Index (Mean ± SE), neointima/media ratio in areas of maximum neointimal hyperplasia, 2 weeks ([1]; i.p., listed as unconjugated EGF) | Mice with neointimal hyperplasia detected, 2 weeks after vascular injury ([1]; i.p. 0.1 mg/kg/dose twice daily)
B1 | 0.0±0.0 | none of the 5; also recorded: none of the five | 0.59±0.16 | all of the 24 | significantly reduced the magnitude of neointimal hyperplasia | suppressed migration of myofibroblasts into the mural thrombus and the formation of neointima | inhibited the migration of VSMC in a dose dependent fashion | 1 µg/mL | 1000 fold | – | –
B2 | 0.63 ± 0.20 | – | – | – | ineffective | – | significantly promoted the migration | – | – | 0.63±0.20 | 6 of 8

Source: US6034053A, “EGF-isoflavone conjugates for the prevention of restenosis” (Wayne Hughes Institute, priority 1998, dated 2000)
